B1: SND1-NLuc (other)
chain: EQKLISEEDLVPTVQRGIIKMVLSGCAIIVRGQPRGGPPPERQINLSNIRAGNLARRAAATQPDAKDTPDEPWAFPAREFLRKKLIGKEVCFTIENKTPQGREYGMIYLGKDTNGENIAESLVAEGLATRREGMRANNPEQNRLSECEEQAKAAKKGMWSEGNGSHTIRDLKYTIENPRHFVDSHHQKPVNAIIEHVRDGSVVRALLLPDYYLVTVMLSGIKCPTFRREADGSETPEPFAAEAKFFTESRLLQRDVQIILESCHNQNILGTILHPNGNITELLLKEGFARCVDWSIAVYTRGAEKLRAAERFAKERRLRIWRDYVAPTANLDQKGGGSGGGSGGGSEDAKNIKKGPAPFYPLEDGTAGEQLHKAMKRYALVPGTIAFTDAHIEVNITYAEYFEMSVRLAEAMKRYGLNTNHRIVVCSENSLQFFMPVLGALFIGVAVAPANDIYNERELLNSMNISQPTVVFVSKKGLQKILNVQKKLPIIQKIIIMDSKTDYQGFQSMYTFVTSHLPPGFNEYDFVPESFDRDKTIALIMNSSGSTGLPKGVALPHRTACVRFSHARDPIFGNQIIPDTAILSVVPFHHGFGMFTTLGYLICGFRVVLMYRFEEELFLRSLQDYKIQSALLVPTLFSFFAKSTLIDKYDLSNLHEIASGGAPLSKEVGEAVAKRFHLPGIRQGYGLTETTSAILITPEGDDKPGAVGKVVPFFEAKVVDLDTGKTLGVNQRGELCVRGPMIMSGYVNNPEATNALIDKDG
notes: Expressed in HEK293T cells and used as cell lysate; also called Myc-SND1-NLuc; split-luc component

For test [1], the target named is T1, CLuc (firefly luciferase C-terminal fragment, 398-550aa) (UniProt P08659 398-550 = luciferase).
T1 construct: Fragment alone, without MTDH
Description: split-luciferase complementation, 293T cells. How it is done:
(§1) Luciferase-based screening. Seed HEK293T cells on 3×15 cm dish at 18-24 hr before transfection with 7-8×10⁶ cells per dish targeting 70-80% confluence when start transfection. 20 μg of pCDNA3.1-SND1-NLuc, pCDNA3.1-CLuc-MTDH, or 2 μg of pCDNA3.1-NLuc-CLuc plasmids that described above were transfected to each dish. 72 hr after transfection the cells were lysed with 5 ml of luciferase lysis buffer (2 mM EDTA, 20 mM DTT, 10% glycerol, 1% Triton X-100, 25 mM Tris base, adjusted to pH7.8 with H₃PO₄) at 4° C. for 20 min. The protein lysates were centrifuged at 13,000 rpm for 10 min, and the supernatant were collected.
(§2) For small chemical compound screening, white, flat-bottom, solid 384-well plates were used. Compounds were added into each well as 0.1 μl of 10 mM DMSO solution (or same amount of DMSO, serve as control). The first and last columns were free, and MTDH wild type ([…]) or mutant ([…]) peptides were added as positive and negative controls right before screening. Same amount of MTDH-CLuc and SND1-NLuc were pre-mixed at 4° C. for 30 min to generate split-luc. 5 μl of split- or linked-luc was added into each well. 15 μl of luciferase assay buffer (25 mM Glycylglycine pH 7.8, 15 mM K₃PO₄ pH 7.8, 15 mM MgSO₄, 4 mM EGTA, 2 mM ATP added just before use, 10 mM DTT added just before use and 1 mM D-Luciferin added just before use) was then added into each well to get a 20 μl reaction system with 50 μM of compounds (peptides) in each well. The plates were incubated at 4° C. for 1 hr and luciferase activity at each well was measured.

In test [2] the target is T2, SND1 (endogenous, SCP28 breast cancer cell lysate) (human, UniProt Q7KZF4 2-910).
T2 construct: Detected by Western blot after MTDH immunoprecipitation; also called Staphylococcal nuclease domain-containing 1
T2 sequence (looked up): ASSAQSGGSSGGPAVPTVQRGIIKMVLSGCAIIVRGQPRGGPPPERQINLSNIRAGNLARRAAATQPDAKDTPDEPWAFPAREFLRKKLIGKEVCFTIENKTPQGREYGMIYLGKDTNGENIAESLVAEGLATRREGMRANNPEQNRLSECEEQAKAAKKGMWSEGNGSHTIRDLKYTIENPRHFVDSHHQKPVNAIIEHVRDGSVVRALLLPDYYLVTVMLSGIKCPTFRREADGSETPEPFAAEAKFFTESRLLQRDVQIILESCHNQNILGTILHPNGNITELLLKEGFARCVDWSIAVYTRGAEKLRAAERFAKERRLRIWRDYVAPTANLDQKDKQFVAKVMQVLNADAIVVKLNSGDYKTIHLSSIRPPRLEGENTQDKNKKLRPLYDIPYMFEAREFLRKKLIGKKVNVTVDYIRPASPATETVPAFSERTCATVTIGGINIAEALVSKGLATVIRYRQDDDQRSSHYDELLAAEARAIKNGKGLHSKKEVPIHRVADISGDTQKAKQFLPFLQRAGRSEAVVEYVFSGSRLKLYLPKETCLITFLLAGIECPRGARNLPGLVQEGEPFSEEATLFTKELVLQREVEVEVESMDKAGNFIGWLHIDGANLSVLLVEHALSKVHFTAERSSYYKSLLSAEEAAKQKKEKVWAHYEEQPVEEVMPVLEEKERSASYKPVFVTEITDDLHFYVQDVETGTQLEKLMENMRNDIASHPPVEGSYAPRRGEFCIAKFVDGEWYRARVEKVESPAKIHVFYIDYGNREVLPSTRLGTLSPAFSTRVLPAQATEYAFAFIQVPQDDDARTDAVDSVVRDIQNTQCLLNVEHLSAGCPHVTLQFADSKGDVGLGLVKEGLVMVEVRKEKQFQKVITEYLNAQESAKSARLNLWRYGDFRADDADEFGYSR
Description: Co-IP from SCP28 lysate with 2 µg MTDH antibody. How it is done:
(§3) FIG. 10E, Schematic diagram of Co-IP based confirmation of MTDH-SND1 inhibitory compounds (left). SCP28 cells were lysed for IP assay.2 μg of MTDH antibody together with 500 μM of MTDH wild type (Pep-WT) or mutant (Pep-MT) peptides were added into each 1 ml of samples. Red star indicates wild type MTDH peptide competing off SND1 that binds to MTDH.
(§4) Co-immunoprecipitation assay (Co-IP), which is a commonly used standard test to determine protein-protein interaction, was next employed to validate the candidates. Lysates of breast cancer cell line SCP28, a single cell-derived subline from the MDA-MB-231 TNBC cell line²⁵, was immunoprecipitated with anti-MTDH antibody alone or together with inhibitors (FIG. 3F and FIG. 10E). The samples were then incubated with Protein-A/G beads to pull down MTDH, followed by Western blot analysis to detect SND1. In such co-TP experiment, MTDH-WT but not MTDH-MT peptide blocks MTDH-SND1 interaction (FIG. 10E). […] Using multiple screening and validation platforms, two classes of compounds, C26s and C32s, were obtained that inhibit MTDH-SND1 interaction.

Test [3] has as its target B1. Description: split-luciferase complementation, 293T cells. How it is done: as §1, §2
Test [4] has as its target T3, NLuc (firefly luciferase N-terminal fragment, 1-416aa) (UniProt P08659 1-416 = luciferase).
T3 construct: range 1-416; Fragment alone, without SND1
Briefly: split-luciferase complementation, 293T cells. The protocol:
as §1, §2

For test [5], the target named is B1. Description: split-luciferase competition assay, HEK293T lysates. How it is done: as §1
as §2, with “15 μl of luciferase assay buffer (25 mM Glycylglycine pH 7.8, 15 mM K₃PO₄ pH 7.8, 15 mM MgSO₄, 4 mM EGTA, 2 mM ATP added just before use, 10 mM DTT added just before use and 1 mM D-Luciferin added just before use) was then added into each well to get a 20 μl reaction system with 50 μM of compounds (peptides) in each well.” left out

Test [6] concerns the target T2, SND1 (endogenous, SCP28 breast cancer …). Briefly: Co-IP competition, SCP28 lysate, anti-MTDH antibody, Western blot for SND1. The protocol:
as §3, §4
(In general: A western blot detects proteins with antibodies after separation by electrophoresis.)

Regarding B1, in test [1], the binding result was “no binding”.

B2: MTDH (endogenous, SCP28 breast cancer cell lysate) (other, human, UniProt Q86UE4 1-582, looked up)
chain: MAARSWQDELAQQAEEGSARLREMLSVGLGFLRTELGLDLGLEPKRYPGWVILVGTGALGLLLLFLLGYGWAAACAGARKKRRSPPRKREEAAAVPAAAPDDLALLKNLRSEEQKKKNRKKLSEKPKPNGRTVEVAEGEAVRTPQSVTAKQPPEIDKKNEKSKKNKKKSKSDAKAVQNSSRHDGKEVDEGAWETKISHREKRQQRKRDKVLTDSGSLDSTIPGIENTITVTTEQLTTASFPVGSKKNKGDSHLNVQVSNFKSGKGDSTLQVSSGLNENLTVNGGGWNEKSVKLSSQISAGEEKWNSVSPASAGKRKTEPSAWSQDTGDANTNGKDWGRSWSDRSIFSGIGSTAEPVSQSTTSDYQWDVSRNQPYIDDEWSGLNGLSSADPNSDWNAPAEEWGNWVDEERASLLKSQEPIPDDQKVSDDDKEKGEGALPTGKSKKKKKKKKKQGEDNSTAQDTEELEKEIREDLPVNTSKTRPKQEKAFSLKTISTSDPAEVLVKNSQPIKTLPPATSTEPSVILSKSDSDKSSSQVPPILQETDKSKSNTKQNSVPPSQTKSETSWESPKQIKKKKKARRET
notes: Pulled down with anti-MTDH antibody and Protein-A/G beads; also called metadherin
B2: the binding result in test [2] was “binds”.

B3: CLuc-MTDH (other)
chain: MSGYVNNPEATNALIDKDGWLHSGDIAYWDEDEHFFIVDRLKSLIKYKGYQVAPAELESILLQHPNIFDAGVAGLPDDDAGELPAAVVVLEHGKTMTEKEIVDYVASQVTTAKKLRGGVVFVDEVPKGLTGKLDARKIREILIKAKKGGKSKLGGGSGGGSSSADPNSDWNAPAEEWGNWVDEYPYDVPDYA
notes: Expressed in HEK293T cells and used as cell lysate; also called CLuc-MTDH-HA; MTDH-CLuc
For B3, the binding result in test [3] is reported as “binds”; in test [4], “no binding”.
As for PNSDANAPAEEAGNW (also called Pep-MT; MTDH mutant peptide) [mutant MTDH (MTDH-MT) peptide], the binding result in test [5] was “no binding (tested: 50 µM)”; in test [6] it was “no binding (tested: 500 µM)”.

Values taken from patent US20240398767A1, “INHIBITORS OF THE MTDH-SND1 PROTEIN COMPLEX FOR CANCER THERAPY” (The Trustees of Princeton University, priority 2021, published 2024).
